Experimental data as given in PMC12197088.

Legend:
[1] = target: nucleolin (NCL), cell surface of MCF-7 (UniProt P19338); experiment: flow cytometry; conditions: intact MCF-7 cells (apparent cellular Kd); Dulbecco's PBS with CaCl2 and MgCl2, 4.5 g/L glucose, 5 mM MgCl2, 0.1 mg/mL yeast tRNA, 1 mg/mL BSA; on ice 30 min; pH not stated
[2] = target: nucleolin (NCL), cell surface of MCF-7;IGFIIR, cell surface of MCF-7 (UniProt P19338+P11717); experiment: flow cytometry; conditions: intact MCF-7 cells (apparent cellular Kd); Dulbecco's PBS with CaCl2 and MgCl2, 4.5 g/L glucose, 5 mM MgCl2, 0.1 mg/mL yeast tRNA, 1 mg/mL BSA; on ice 30 min; pH not stated
Chain of nucleolin (NCL), cell surface of MCF-7;IGFIIR, cell surface of MCF-7 (P19338 2-710, chain 1 of 2): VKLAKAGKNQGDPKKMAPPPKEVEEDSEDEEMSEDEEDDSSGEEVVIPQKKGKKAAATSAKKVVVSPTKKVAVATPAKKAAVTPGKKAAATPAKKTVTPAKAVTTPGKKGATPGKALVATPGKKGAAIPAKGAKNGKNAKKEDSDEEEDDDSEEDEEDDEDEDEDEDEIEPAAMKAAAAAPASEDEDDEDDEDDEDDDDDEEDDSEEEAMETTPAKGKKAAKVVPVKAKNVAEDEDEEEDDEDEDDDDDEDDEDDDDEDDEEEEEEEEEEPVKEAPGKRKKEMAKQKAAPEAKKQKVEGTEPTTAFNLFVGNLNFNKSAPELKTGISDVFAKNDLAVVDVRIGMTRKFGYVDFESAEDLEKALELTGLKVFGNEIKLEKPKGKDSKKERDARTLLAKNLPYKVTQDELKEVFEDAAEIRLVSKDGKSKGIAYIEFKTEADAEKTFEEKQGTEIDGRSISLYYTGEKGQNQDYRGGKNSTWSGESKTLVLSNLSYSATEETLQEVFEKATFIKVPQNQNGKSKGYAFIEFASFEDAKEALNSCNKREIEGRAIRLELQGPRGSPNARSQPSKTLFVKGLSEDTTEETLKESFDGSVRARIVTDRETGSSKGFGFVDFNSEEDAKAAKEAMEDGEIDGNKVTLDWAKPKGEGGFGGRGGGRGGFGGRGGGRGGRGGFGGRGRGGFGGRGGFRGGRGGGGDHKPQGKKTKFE
Chain of nucleolin (NCL), cell surface of MCF-7;IGFIIR, cell surface of MCF-7 (P11717 41-2491, chain 2 of 2): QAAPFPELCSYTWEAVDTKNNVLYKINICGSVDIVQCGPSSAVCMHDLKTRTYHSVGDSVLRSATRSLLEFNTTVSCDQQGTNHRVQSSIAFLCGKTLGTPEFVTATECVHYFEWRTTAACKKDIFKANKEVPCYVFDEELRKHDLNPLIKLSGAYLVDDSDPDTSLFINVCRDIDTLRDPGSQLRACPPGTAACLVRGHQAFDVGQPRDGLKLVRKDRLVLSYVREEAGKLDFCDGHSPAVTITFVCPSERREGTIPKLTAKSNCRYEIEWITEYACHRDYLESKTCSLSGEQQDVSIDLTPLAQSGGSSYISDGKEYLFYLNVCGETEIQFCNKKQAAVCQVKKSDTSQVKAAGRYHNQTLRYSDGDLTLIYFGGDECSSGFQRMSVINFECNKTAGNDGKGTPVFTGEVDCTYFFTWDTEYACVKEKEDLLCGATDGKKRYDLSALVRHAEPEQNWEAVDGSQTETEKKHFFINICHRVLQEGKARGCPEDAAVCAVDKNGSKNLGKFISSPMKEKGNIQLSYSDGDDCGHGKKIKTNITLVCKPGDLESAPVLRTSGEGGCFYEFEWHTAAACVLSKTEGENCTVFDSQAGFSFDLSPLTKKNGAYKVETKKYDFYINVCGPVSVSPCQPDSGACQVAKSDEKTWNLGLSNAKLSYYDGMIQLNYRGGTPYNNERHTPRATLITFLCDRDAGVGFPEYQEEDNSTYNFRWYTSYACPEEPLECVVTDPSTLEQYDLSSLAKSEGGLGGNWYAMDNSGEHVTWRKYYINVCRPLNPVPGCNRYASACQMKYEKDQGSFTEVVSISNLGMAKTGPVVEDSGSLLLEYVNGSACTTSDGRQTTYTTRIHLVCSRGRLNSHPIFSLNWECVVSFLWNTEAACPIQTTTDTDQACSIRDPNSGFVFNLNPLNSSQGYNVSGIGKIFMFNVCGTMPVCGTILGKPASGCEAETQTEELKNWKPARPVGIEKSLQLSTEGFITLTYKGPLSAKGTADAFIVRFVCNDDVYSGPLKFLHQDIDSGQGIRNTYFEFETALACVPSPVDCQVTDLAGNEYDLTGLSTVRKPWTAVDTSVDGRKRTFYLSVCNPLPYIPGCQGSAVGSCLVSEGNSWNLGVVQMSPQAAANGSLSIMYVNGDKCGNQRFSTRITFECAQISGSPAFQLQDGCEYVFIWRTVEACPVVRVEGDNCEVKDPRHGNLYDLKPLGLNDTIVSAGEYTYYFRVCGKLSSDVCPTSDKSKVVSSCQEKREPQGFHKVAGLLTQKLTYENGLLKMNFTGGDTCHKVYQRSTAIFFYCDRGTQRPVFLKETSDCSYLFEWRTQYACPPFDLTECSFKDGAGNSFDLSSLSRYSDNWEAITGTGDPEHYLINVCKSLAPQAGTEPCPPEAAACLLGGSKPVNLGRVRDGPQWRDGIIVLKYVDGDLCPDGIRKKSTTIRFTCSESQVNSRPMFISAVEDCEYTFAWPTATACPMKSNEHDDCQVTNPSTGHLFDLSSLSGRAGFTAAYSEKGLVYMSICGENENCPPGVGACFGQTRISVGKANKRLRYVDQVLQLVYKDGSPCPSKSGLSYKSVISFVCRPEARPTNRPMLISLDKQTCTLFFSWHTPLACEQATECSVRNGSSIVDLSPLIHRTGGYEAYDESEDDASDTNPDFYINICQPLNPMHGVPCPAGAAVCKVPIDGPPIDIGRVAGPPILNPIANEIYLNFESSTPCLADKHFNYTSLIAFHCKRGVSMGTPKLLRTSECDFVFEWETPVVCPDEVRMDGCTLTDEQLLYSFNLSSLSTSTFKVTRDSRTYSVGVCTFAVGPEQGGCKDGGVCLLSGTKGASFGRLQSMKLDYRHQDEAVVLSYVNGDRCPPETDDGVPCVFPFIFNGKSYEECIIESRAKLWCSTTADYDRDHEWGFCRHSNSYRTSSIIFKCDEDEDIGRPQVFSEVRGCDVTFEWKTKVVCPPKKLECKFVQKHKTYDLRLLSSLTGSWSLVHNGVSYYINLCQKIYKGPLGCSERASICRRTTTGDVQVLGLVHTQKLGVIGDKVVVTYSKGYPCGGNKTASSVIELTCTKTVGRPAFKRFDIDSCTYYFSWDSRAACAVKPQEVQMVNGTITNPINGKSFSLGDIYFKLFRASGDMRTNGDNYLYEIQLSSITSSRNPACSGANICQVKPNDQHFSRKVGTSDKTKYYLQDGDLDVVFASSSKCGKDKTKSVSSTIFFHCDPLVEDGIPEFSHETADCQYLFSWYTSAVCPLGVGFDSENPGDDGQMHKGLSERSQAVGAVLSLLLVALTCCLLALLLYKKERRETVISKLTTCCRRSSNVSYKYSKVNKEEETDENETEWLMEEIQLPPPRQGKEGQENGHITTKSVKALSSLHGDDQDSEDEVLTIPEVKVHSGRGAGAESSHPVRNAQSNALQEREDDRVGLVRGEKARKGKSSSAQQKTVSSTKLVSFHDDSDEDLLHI

Chain of nucleolin (NCL), cell surface of MCF-7 (P19338 2-710): as the sequence (P19338 2-710, chain 1 of 2) above

Row | Sequence | Kd [1] [nM] | Kd [2] [nM]
1 | GGTGGTGGTGGTTGTGGTGGTGGTGG [AS1411 (NCL aptamer)] | 137 | –
2 | TTTTTTTTTTTTTTTGGGCGCGTAGATGACGAGCAGTCCTAACATCGTTTAGGAC / AAAAAAAAAAAAAAAGGTGGTGGTGGTTGTGGTGGTGGTGG [Mo-AS (monovalent NCL/IGFIIR chimera)] | – | 518
